As a reminder, the EC50 is the concentration needed to bring the measured effect to its halfway point. The low end stands for higher potency in that assay, the high end for lower potency in that assay.

What all share (test): FRET
Experiment [1] addresses OmSMAX1-D1M domain (Orobanche minor OF MAX2 1, D1M domain) (Orobanche minor).
Experiment [2] shares this target. The source holds these as a separate data set.
For experiment [3] the target is unchanged. This is another data set of the same source.
The target is the same in experiment [4]. The source holds these as a separate data set.

Like-named read-outs stand apart in the source and are kept apart here.

Take “OmKAI2d9 (Orobanche minor divergent 2 receptor d9)”: in experiment [1], the EC50 amounted to 202 µM.

For the substance “OmKAI2d4 (Orobanche minor divergent 2 receptor d4)”, the values for the EC50 in experiment [1] and in experiment [2] were 0.15 µM and 231 µM, respectively.

Take “OmKAI2d3 (Orobanche minor divergent 2 receptor d3)”: the EC50 in experiment [3] is 0.18 µM; in experiment [1], 231 µM. Take “OmKAI2d10 (Orobanche minor divergent 2 receptor d10)”: the EC50 is 133 µM in experiment [1] and 209 µM in experiment [4].

The values are drawn from doi:10.64898/2025.12.31.697154.
